In article doi:10.1101/2025.03.28.645925 (bioRxiv, 2025):
Values joined by “and” are separate entries in the source; they are usually repeats but may differ in a detail not shown here. Equal entries are not always repeated. Where two headings read alike, the source gives them in different places.

Legend:
[1] = target: NrdR2^PAO (GSGSGS-NrdR2, P. aeruginosa NrdR after TEV digestion) (P. aeruginosa PAO1); assay: SEC-MALS
[2] = target: NrdR2^PAO (GSGSGS-NrdR2, P. aeruginosa NrdR after TEV digestion) (P. aeruginosa PAO1); assay: SEC-MALS; remark: listed apart in the source
[3] = target: NrdR2^PAO (GSGSGS-NrdR2, P. aeruginosa NrdR after TEV digestion) (P. aeruginosa PAO1); assay: SEC-MALS; remark: listed apart in the source
[4] = target: NrdR1^PAO (P. aeruginosa NrdR with a two amino acid linker after SUMO protease digestion) (P. aeruginosa PAO1); assay: SEC
[5] = target: NrdR1^PAO (P. aeruginosa NrdR with a two amino acid linker after SUMO protease digestion) (P. aeruginosa PAO1); assay: SEC; remark: listed apart in the source
SEC-MALS [6] = target: the molecule itself; assay: SEC-MALS
P0A8D0 [7] = assay: SEC-MALS
P0A8D0 [8] = assay: SEC-MALS; remark: listed apart in the source
SEC-MALS [9] = target: the molecule itself; assay: SEC-MALS; remark: listed apart in the source
SEC-MALS [10] = target: the molecule itself; assay: SEC-MALS; remark: listed apart in the source
SEC = target: the molecule itself; assay: SEC
SEC-MALS [11] = target: the molecule itself; assay: SEC-MALS; remark: listed apart in the source
SEC-MALS [12] = target: the molecule itself; assay: SEC-MALS; remark: listed apart in the source
SEC-MALS [13] = target: the molecule itself; assay: SEC-MALS; remark: listed apart in the source

Molecule: NrdR2^PAO (GSGSGS-NrdR2, P. aeruginosa NrdR after TEV digestion) (natural protein)
- stoichiometry N [1]: > 2
- stoichiometry N [2]: > 2
- stoichiometry N [3]: 2

Molecule: NrdR1^PAO (P. aeruginosa NrdR with a two amino acid linker after SUMO protease digestion) (natural protein)
- stoichiometry N [4]: 6 and 2
- stoichiometry N [5]: 2 and 3

B1: SUMO-NrdR2^ECO Δ(132-149) (domain or fragment, E. coli K-12 MG1655)
chain: ENLYPQGSGSGSMHCPFCFAVDTKVIDSRLVGEGSSVRRRRQCLVCNERFTTFEVAELVMPRVVKSNDVREPFNEEKLRSGMLRALEKRPVSSDDVEMAINHIKSQLRATGEREVPSKMIGNLVMEQLKKLDKVAYIRFASVY
- stoichiometry N (SEC-MALS [6]): 2

B2: SUMO-NrdR2^ECO E42A (natural protein, E. coli K-12 MG1655)
chain: ENLYPQGSGSGSMHCPFCFAVDTKVIDSRLVGEGSSVRRRRQCLVCNERFTTFAVAELVMPRVVKSNDVREPFNEEKLRSGMLRALEKRPVSSDDVEMAINHIKSQLRATGEREVPSKMIGNLVMEQLKKLDKVAYIRFASVYRSFEDIKEFGEEIARLED
- stoichiometry N (SEC-MALS [6]): 2
- percent of the protein mass in the monomer peak (P0A8D0 [7]): 83% in a peak with average Mw 36.88 kDa
- percent of the protein mass in the monomer peak (P0A8D0 [8]): 63% in a peak with average Mw 33.21 kDa

B3: SUMO-NrdR2^ECO (undigested 6His-SUMO-TEVcs-(SGSGS)-NrdR, E. coli), wild type (natural protein, E. coli K-12 MG1655)
chain: ENLYPQGSGSGSMHCPFCFAVDTKVIDSRLVGEGSSVRRRRQCLVCNERFTTFEVAELVMPRVVKSNDVREPFNEEKLRSGMLRALEKRPVSSDDVEMAINHIKSQLRATGEREVPSKMIGNLVMEQLKKLDKVAYIRFASVYRSFEDIKEFGEEIARLED
- stoichiometry N (SEC-MALS [9]): 12
- stoichiometry N (SEC-MALS [10]): 4 and 8
- stoichiometry N (SEC-MALS [6]): 2 and ≥ 4

B4: SUMO-NrdR2^ECO E36A (natural protein, E. coli K-12 MG1655)
chain: ENLYPQGSGSGSMHCPFCFAVDTKVIDSRLVGEGSSVRRRRQCLVCNARFTTFEVAELVMPRVVKSNDVREPFNEEKLRSGMLRALEKRPVSSDDVEMAINHIKSQLRATGEREVPSKMIGNLVMEQLKKLDKVAYIRFASVYRSFEDIKEFGEEIARLED
- stoichiometry N (SEC-MALS [10]): 3
- stoichiometry N (SEC-MALS [6]): 2 and ≥ 4

B5: SUMO-NrdR2^ECO Y131A (natural protein, E. coli K-12 MG1655)
chain: ENLYPQGSGSGSMHCPFCFAVDTKVIDSRLVGEGSSVRRRRQCLVCNERFTTFEVAELVMPRVVKSNDVREPFNEEKLRSGMLRALEKRPVSSDDVEMAINHIKSQLRATGEREVPSKMIGNLVMEQLKKLDKVAYIRFASVARSFEDIKEFGEEIARLED
- stoichiometry N (SEC-MALS [9]): 4 and 8 and 3
- stoichiometry N (SEC-MALS [6]): 2

B6: NrdR^PAO-H6 (P. aeruginosa NrdR with a C-terminal 6His-tag) (natural protein, P. aeruginosa PAO1, UniProt Q9HWX1 1-154, looked up)
chain: MHCPFCGAHDTKVIDSRLVAEGDQVRRRRECLACGERFTTFETAELVMPRLIKQDGSRQPFDEDKLRAGMQRALEKRPVSVERLEAAIGHIKHQLRATGEREIKSRVLGELVMAELQKLDEVAYIRFASVYRRFQDLNEFREEIERLAREPAKE
- binding result (SEC): binds

B7: NrdR2^ECO (GSGSGS-NrdR2, E. coli NrdR after TEV digestion) (natural protein, E. coli K-12 MG1655)
chain: GSGSGSMHCPFCFAVDTKVIDSRLVGEGSSVRRRRQCLVCNERFTTFEVAELVMPRVVKSNDVREPFNEEKLRSGMLRALEKRPVSSDDVEMAINHIKSQLRATGEREVPSKMIGNLVMEQLKKLDKVAYIRFASVYRSFEDIKEFGEEIARLED
- stoichiometry N (SEC-MALS [11]): 4 to 10 (2×) and 8
- stoichiometry N (SEC-MALS [9]): 15 to 16
- stoichiometry N (SEC-MALS [12]): 3
- stoichiometry N (SEC-MALS [13]): 6
- stoichiometry N (SEC-MALS [6]): 2
